The target in test [1] is SARS-CoV-2 RBD (Sino Biological 40592-V08H); Spike Receptor Binding Domain residues R319 - F541 His tagged (SARS-CoV-2) (UniProt P0DTC2). Briefly: OECT sensor, PEDOT:PSS channel, nanobody on gate, target in buffer.
Test [2] has the same target.
Test [3] shares this target. This is another data set of the same source.

Read-outs that look alike come from different tables or passages of the source.

Consider “VHH72-8 aa-spyCatcher-3C cleavage site-His8”, for which the LOD in test [1] is 0.024 pM; in test [2], 0.048 pM; in test [3], 0.023 pM.
